Laboratory results taken from PMC2114528.
Where two headings read alike, the source gives them in different places.

Tests used:
[1] = target: ECGF receptor (Mr 150,000 polypeptide) on LEII cells (mouse (endogenous in LEII cells)) (UniProt P16092); assay: radioligand binding
[2] = target: ECGF receptor (Mr 150,000 polypeptide) on LEII cells (mouse (endogenous in LEII cells)) (UniProt P16092); assay: radioligand binding; remark: listed apart in the source

Chain of UniProt P16092 (P16092 22-822): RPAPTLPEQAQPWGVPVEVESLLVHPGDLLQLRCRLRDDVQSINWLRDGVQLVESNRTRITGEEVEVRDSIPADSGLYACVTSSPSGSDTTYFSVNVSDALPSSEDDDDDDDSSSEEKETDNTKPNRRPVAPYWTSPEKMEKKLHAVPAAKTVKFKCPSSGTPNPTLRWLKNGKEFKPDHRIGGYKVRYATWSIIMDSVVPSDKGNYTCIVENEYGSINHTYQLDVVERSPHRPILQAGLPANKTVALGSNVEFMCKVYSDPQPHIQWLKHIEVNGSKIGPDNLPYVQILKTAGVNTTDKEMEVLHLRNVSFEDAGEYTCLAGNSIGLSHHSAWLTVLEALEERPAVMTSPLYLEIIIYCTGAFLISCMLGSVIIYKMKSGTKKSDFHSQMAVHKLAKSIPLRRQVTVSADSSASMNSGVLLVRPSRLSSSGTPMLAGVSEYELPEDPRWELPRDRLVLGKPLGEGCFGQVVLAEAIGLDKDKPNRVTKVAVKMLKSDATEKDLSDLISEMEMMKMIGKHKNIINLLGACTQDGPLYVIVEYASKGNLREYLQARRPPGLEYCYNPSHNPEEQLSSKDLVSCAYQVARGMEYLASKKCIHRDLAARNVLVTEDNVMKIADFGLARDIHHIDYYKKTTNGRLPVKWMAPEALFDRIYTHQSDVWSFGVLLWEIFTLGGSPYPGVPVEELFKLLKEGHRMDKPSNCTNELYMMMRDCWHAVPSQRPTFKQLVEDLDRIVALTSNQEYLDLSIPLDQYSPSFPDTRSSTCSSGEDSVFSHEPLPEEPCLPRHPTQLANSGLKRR

alpha-endothelial cell growth factor (ligand)
Kd [1]: 0.2 nM | Kd [2]: 0.25 nM
